Measured values taken from patent US20220144930A1.

Assays:
[1] = target: recombinant human VEGF165 protein (human) (UniProt P15692); test: cell-based or functional assay
[2] = target: recombinant human VEGF165 protein (human) (UniProt P15692); test: ELISA; coated VEGF165 titrated 0.15-3000 ng/mL, antibody fixed at 1 µg/mL (EC50 is of the coating concentration)
[3] = target: recombinant human VEGF165 protein (human) (UniProt P15692); test: streptavidin-coated sensor with immobilized biotin-labeled VEGF165, antibody at several concentrations
[4] = target: recombinant human VEGF165 protein (human) (UniProt P15692); test: streptavidin-coated sensor with immobilized biotin-labeled VEGF165; reference Avastin

B1: humanized antibody VEGF-H988 (antibody, human IgG1, kappa, V domains shown)
VH: QSVQESGPGLVKPSETLSLTCTVSGIDLSSYAISWVRQPPGKGLEYIGYIWNDLFTYYASWAKGRVTISVDTSKNQVDLKLSSVTAADTAVYFCARGTLGDYGGMDPWGQGTLVTVSS
VL: ELQLTQSPSSLSASVGDRVTITCQSSKFLWQGRRLAWYQQKPGKVPKLLIYGASTLASGVPSRFKGSGSGTDFTLTISSLQPEDVATYYCAGYKSYDGDVVGFGGGTKVEIKR
EC50(nM), neutralizing VEGF165 at 10 ng/mL, HUVEC proliferation [1]: 0.14 nM | EC50(nM), neutralizing VEGF165 at 10 ng/mL, HUVEC proliferation (run against Avastin) [1]: 0.13 nM | EC50(nM), neutralizing VEGF165 at 100 ng/mL, HUVEC proliferation [1]: 1.34 nM | EC50(nM), neutralizing VEGF165 at 100 ng/mL, HUVEC proliferation (run against Avastin) [1]: 1.36 nM | EC50(nM), neutralizing VEGF165 at 1000 ng/mL, HUVEC proliferation [1]: 9.67 nM | EC50(nM), neutralizing VEGF165 at 1000 ng/mL, HUVEC proliferation (run against Avastin) [1]: 9.33 nM | maximum neutralization rate (%), VEGF165 at 10 ng/mL, HUVEC proliferation [1]: 100% | maximum neutralization rate (%), VEGF165 at 10 ng/mL, HUVEC proliferation (run against Avastin) [1]: 100% | maximum neutralization rate (%), VEGF165 at 100 ng/mL, HUVEC proliferation [1]: 102% | maximum neutralization rate (%), VEGF165 at 100 ng/mL, HUVEC proliferation (run against Avastin) [1]: 102% | maximum neutralization rate (%), VEGF165 at 1000 ng/mL, HUVEC proliferation [1]: 104% | maximum neutralization rate (%), VEGF165 at 1000 ng/mL, HUVEC proliferation (run against Avastin) [1]: 104% | EC50 [2]: 2.42 ng/mL | Kd [3]: 0.0195 nM | koff [3]: 6.7e-06 s⁻¹ | kon [3]: 344000 M⁻¹ s⁻¹ | fold affinity against Avastin [4]: 1.5 fold
